Measurements published in US20210017281A1 (IMMUNEXT, published 2021).
Residue numbers refer to the chain shown, from its start.

B1: INX907 | VSTB66 (antibody, V domains shown)
VH: QVQLVQSGAEVKKPGASVKVSCKASGYPFTGYFMHWVRQAPGQGLEWMGRINPYNGGTVYNQNFNDRVTMTRDTSTSTVYMELSSLRSEDTAVYYCARWTFDGLFMDYWGQGTTVTVSS
VL: DVVMTQSPLSLPVTLGQPASISCRASENVDKYGISFMNWFQQRPGQSPRRLIYATSNQGSGVPDRFSGSGSGTDFTLKISRVEAEDVGVYYCQQSKEDPYTFGQGTKLEIK
notes: INX name = the VSTB variable regions with human IgG2 constant regions
B2: VSTB70 (antibody, V domains shown)
VH: EVQLVQSGAEVKKPGATVKISCKVSGYTFSNYWIEWVQQAPGKGLEWMGEILPGSGNVHYNEKFKGRVTITADTSTDTAYMELSSLRSEDTAVYYCATPPHYYGYDYYDVNYWGQGTLVTVSS
VL: DVVMTQSPLSLPVTLGQPASISCKSSQSLLDSDGKTYLNWFQQRPGQSPRRLIYLVSELDSGVPDRFSGSGSGTDFTLKISRVEAEDVGVYYCWQGTHFPQTFGQGTKLEIKR
B3: VSTB78 (antibody, V domains shown)
VH: QVQLVQSGAEVKKPGASVKVSCKASGYTFTNYWMHWVRQAPGQGLEWMGYINPSSGYTEYNQKFKDRVTMTRDTSTSTVYMELSSLRSEDTAVYYCARDGGSVLFGYWGQGTTVTVSS
VL: DIVMTQSPDSLAVSLGERATINCKSSQSLLNSGIRKNYLAWYQQKPGQPPKLLIYSASTRESGVPDRFSGSGSGTDFTLTISSLQAEDVAVYYCKQSYNLYTFGQGTKLEIKR
B4: INX908 | VSTB92 (antibody, V domains shown)
VH: QVQLVQSGAEVKKPGASVKVSCKASGYTFANYLIGWVRQAPGQRLEWMGDIYPGGGFISYNEKFKGRVTITRDTSASTAYMELSSLRSEDTAVYYCARRFDYGGYFFDYWGQGTLVTVSS
VL: DIVMTQSPLSLPVTPGEPASISCRSSQSIVHSNGNIYLEWYLQKPGQSPQLLIYKVSNRFSGVPDRFSGSGSGTDFTLKISRVEAEDVGVYYCFQGSHVPWTFGQGTKLEIK
notes: INX name = the VSTB variable regions with human IgG2 constant regions; also called INX908 parental
B5: VSTB59 (antibody, V domains shown)
VH: QVQLVQSGAEVKKPGASVKVSCKASGYTFTDYWMHWVRQAPGQGLEWMGAIETSLNYPSYNQKFKGRVTMTRDTSTSTVYMELSSLRSEDTAVYYCARWGIYGNPWFAYWGRGTLVTVSS
VL: DIVMTQTPLSLSVTPGQPASISCRASESVDSYVNSFVHWYLQKPGQPPQLLIYRASNLESGVPDRFSGSGSGTDFTLKISRVEAEDVGVYYCQQSNEDPYTFGQGTKLEIKR
B6: VSTB60 (antibody, V domains shown)
VH: QVQLVQSGSELKKPGASVKVSCKASGYTFTNYGMTWVRQAPGQGLEWMGWINTYTGESTYADDFKGRFVFSLDTSVSTAYLQICSLKAEDTAVYYCARDYYGIYVSAYWGQGTLVTVSS
VL: B5 VL with S31N, V33A, V37M, P47S, N96H
B7: VSTB81 (antibody, V domains shown)
VH: QVTLKESGPALVKPTQTLTLTCTFSGFSLSTSGMGVSWIRQPPGKALEWLAHIYWDDDKRYNPSLKSRLTISKDTSKNQVVLTMTNMDPVDTATYYCARRPDYFGSSYVDWGQGTTVTVSS
VL: B5 VL with S31T, V33G, V37M, R54L, E59D, S60F, S95N, Y100W
B8: VSTB65 (antibody, V domains shown)
VH: QVQLVQSGAEVKKPGASVKVSCKASGYTFTSYWIHWVRQAPGQGLEWMGEINPSNGLTNYNEKFRNRVTMTRDTSTSTVYMELSSLRSEDTAVYYCARSYDYDGDYYAMDYWGQGTLVTVSS
VL: DIVMTQSPLSLPVTPGEPASISCRSTQSIVHSNGNTYLEWYLQKPGQSPQLLIYKVSNRFSGVPDRFSGSGSGTDFTLKISRVEAEDVGVYYCFQASHVPWTFGQGTKLEIKR
B9: INX901 | VSTB56 (antibody, V domains shown)
VH: QVQLVQSGAEVKKPGASVKVSCKASGYTFTSYWLHWVRQAPGQGLEWMGYIIPNTLHTDYNQKFKDRVTMTRDTSTSTVYMELSSLRSEDTAVYYCARLDGDYDYALDYWGQGTLVTVSS
VL: DIVMTQTPLSLSVTPGQPASISCRASESVEYYGTSFMQWYLQKPGQPPQLLIYTASNVESGVPDRFSGSGSGTDFTLKISRVEAEDVGVYYCQQSRKVPYTFGQGTKLEIK
notes: INX name = the VSTB variable regions with native human IgG2 constant regions; also called INX901 parental
B10: INX906 | VSTB54 (antibody, V domains shown)
VH: QVQLVQSGAEVKKPGASVKVSCKASGYNIKDTYMHWVRQAPGQGLEWMGRIDPTHGYVIYDPKFQGRVTMTRDTSTSTVYMELSSLRSEDTAVYYCARDRFDPYWFLDVWGQGTLVTVSS
VL: B9 VL with F36L, P47S, T54D, S56F, Y100W
notes: as for B1
B11: INX902 | VSTB63 (antibody, V domains shown)
VH: QVQLQESGPGLVKPSETLSLTCAVSGFSITSDFAWNWIRQPPGKGLEWIGYITYSGFTNYNPSLESRVTISVDTSKNQFSLKLSSVTAADTAVYYCARQEYGNYVWYFDVWGQGTLVTVSS
VL: B9 VL with F36L, M37L, T54A, Y100W
notes: as for B1
B12: VSTB74 (antibody, V domains shown)
VH: QMQLVQSGPEVKKPGTSVKVSCKASGYIFTDYNIDWVRQARGQRLEWIGDINPKYDSTRYNQKFKGRVTITRDMSTSTAYMELSSLRSEDTAVYYCAADGSSAMDYWGQGTTVTVSS
VL: DIVMTQSPDSLAVSLGERATINCKSSQSLLNSGHQKNYLAWYQQKPGQPPKLLIYGASTRESGVPDRFSGSGSGTDFTLTISSLQAEDVAVYYCQNDHRYPLTFGQGTKLEIKR
B13: INX900 | VSTB50 (antibody, V domains shown)
VH: B6 VH with M34L, T35N, T53P, S58P, D99E, Y100G, I103N, V105I, S106F, A107P
VL: DIVMTQTPLSLSVTPGQPASISCRASESVDTYANSLMHWYLQKPGQPPQLLIYRASNLESGVPDRFSGSGSGTDFTLKISRVEAEDVGVYYCQQTNEDPRTFGQGTKLEIK
notes: as for B1

Molecular target: T1, human VISTA (human, UniProt Q9H7M9 33-194, limits assumed)
T1 construct: The ELISA text says only recombinant VISTA; also called recombinant VISTA
Test: method not stated (Table 1, column Kd, M)

Binder	Kd [nM]
B1	0.0806
B2	2.23
B3	1.13
B4	0.0934
B5	0.106
B6	0.356
B7	0.312
B8	1.08
B9	0.0235
B10	0.0253
B11	0.83
B12	0.562
B13	0.632
